B1: IMSDSNYVV (peptide)
peptide: IMSDSNYVV
B2: VVVGAGGVGK (peptide)
peptide: VVVGAGGVGK
notes: also called KRAS G12 wild type 10-mer
B3: VVGAGGVGK (peptide)
peptide: VVGAGGVGK
notes: also called KRAS G12 wild type 9-mer
B4: YTDVSNMSHLA (peptide)
peptide: YTDVSNMSHLA
B5: LDTAGKEEY (peptide)
peptide: LDTAGKEEY
B6: DTAGREEY (peptide)
peptide: DTAGREEY
B7: ILDTAGKEEY (peptide)
peptide: ILDTAGKEEY
B8: ILDTAGREEY (peptide)
peptide: ILDTAGREEY
B9: YTDVSNMSH (peptide)
peptide: YTDVSNMSH
B10: KRNSLALSL (peptide)
peptide: KRNSLALSL
B11: GRNSFEVHV (peptide)
peptide: GRNSFEVHV
B12: EKSRWSGSHQF (peptide)
peptide: EKSRWSGSHQF
B13: VVVGAVGVGK (peptide)
peptide: VVVGAVGVGK
B14: VVVGASGVGK (peptide)
peptide: VVVGASGVGK
B15: VVVGARGVGK (peptide)
peptide: VVVGARGVGK
B16: VVGASGVGK (peptide)
peptide: VVGASGVGK
B17: VVGAGDVGK (peptide)
peptide: VVGAGDVGK
B18: KITDFGRAK (peptide)
peptide: KITDFGRAK
B19: VVVGAAGVGK (peptide)
peptide: VVVGAAGVGK
B20: VVVGADGVGK (peptide)
peptide: VVVGADGVGK
B21: ASGAFGTVYK (peptide)
peptide: ASGAFGTVYK
B22: VVVGAGCVGK (peptide)
peptide: VVVGAGCVGK
B23: SCMGGMNQR (peptide)
peptide: SCMGGMNQR
B24: VVGAGCVGK (peptide)
peptide: VVGAGCVGK
B25: VVGACGVGK (peptide)
peptide: VVGACGVGK
B26: VVGADGVGK (peptide)
peptide: VVGADGVGK
B27: VVGAAGVGK (peptide)
peptide: VVGAAGVGK
B28: LASGAFGTVYK (peptide)
peptide: LASGAFGTVYK
B29: STRDPLSEITK (peptide)
peptide: STRDPLSEITK
B30: ASGAFGTVY (peptide)
peptide: ASGAFGTVY
B31: MPFGSLLDY (peptide)
peptide: MPFGSLLDY
B32: CPHRPILQA (peptide)
peptide: CPHRPILQA
B33: GARGVGKSAL (peptide)
peptide: GARGVGKSAL
B34: RSKRNSLAL (peptide)
peptide: RSKRNSLAL
B35: RPIPIKYKAM (peptide)
peptide: RPIPIKYKAM
B36: GARGVGKSA (peptide)
peptide: GARGVGKSA
B37: KPIIIGCH (peptide)
peptide: KPIIIGCH
B38: SPNGTIQNIL (peptide)
peptide: SPNGTIQNIL
B39: MIKRSKRNSL (peptide)
peptide: MIKRSKRNSL
B40: WVKPIIIGC (peptide)
peptide: WVKPIIIGC
B41: FGRAKLLGA (peptide)
peptide: FGRAKLLGA
B42: FKKIKVLAS (peptide)
peptide: FKKIKVLAS
B43: SKRNSLAL (peptide)
peptide: SKRNSLAL
B44: AGREEYSAM (peptide)
peptide: AGREEYSAM
B45: FGLARYIM (peptide)
peptide: FGLARYIM
B46: FMKQMNDAL (peptide)
peptide: FMKQMNDAL
B47: KMRRKMSP (peptide)
peptide: KMRRKMSP
B48: ERCPHRPIL (peptide)
peptide: ERCPHRPIL
B49: DGVGKSAL (peptide)
peptide: DGVGKSAL
B50: PIIIGHHAY (peptide)
peptide: PIIIGHHAY
B51: VKPIIIGHHAY (peptide)
peptide: VKPIIIGHHAY
B52: IIIGGHAY (peptide)
peptide: IIIGGHAY
B53: IIIGHHAY (peptide)
peptide: IIIGHHAY
B54: GADGVGKSAL (peptide)
peptide: GADGVGKSAL
B55: IGDFGLATM (peptide)
peptide: IGDFGLATM
B56: CNTTARAFAVV (peptide)
peptide: CNTTARAFAVV
B57: GRNSFEVCV (peptide)
peptide: GRNSFEVCV
B58: STDVGFCTL (peptide)
peptide: STDVGFCTL

Target: T1, HLA-A*02:01 (human)
T1 construct: whole, on cells; MHC class I on a monoallelic cell line (HMy2.C1R)
Assay: HLA-I IP and untargeted MS of monoallelic cells

Q: Does B1 bind?
A: Result: binds

Target: T2, HLA-A*11:01 (human)
T2 construct: whole, on cells; MHC class I on a monoallelic cell line
Assay: HLA-I IP and targeted MS with hipMHC standards, A*11:01 monoallelic C1R cells (FIG. 12B)

Q: Does B2 bind?
A: Result: binds

Q: Does B3 bind?
A: Result: binds

Target: T3, HLA-A*01:01 (human)
T3 construct: whole, on cells; MHC class I on a monoallelic cell line
Assay: HLA-I IP (W6/32) and targeted MS of monoallelic HMy2.C1R cells expressing the polyantigen cassette

Q: Does B4 bind?
A: Result: binds

Q: Does B5 bind?
A: Result: binds

Q: Does B6 bind?
A: Result: binds

Q: Does B7 bind?
A: Result: binds

Q: Does B8 bind?
A: Result: binds

Q: Does B9 bind?
A: Result: binds

Target: T4, HLA-C*06:02 (human)
T4 construct: whole, on cells; MHC class I on a monoallelic cell line
Assay: as above

Q: Does B10 bind?
A: Result: binds

Q: Does B11 bind?
A: Result: binds

Target: T5, HLA-C*07:01 (human)
T5 construct: whole, on cells; MHC class I on a monoallelic cell line
Assay: as above

Q: Does B10 bind?
A: Result: binds

Q: Does B12 bind?
A: Result: binds

Target: T6, HLA-C*07:02 (human)
T6 construct: whole, on cells; MHC class I on a monoallelic cell line
Assay: as above

Q: Does B10 bind?
A: Result: binds

Target: T7, HLA-A*03:01 (human)
T7 construct: whole, on cells; MHC class I on a monoallelic cell line
Assay: as above

Q: Does B13 bind?
A: Result: binds

Q: Does B14 bind?
A: Result: binds

Q: Does B15 bind?
A: Result: binds

Q: Does B16 bind?
A: Result: binds

Q: Does B17 bind?
A: Result: binds

Q: Does B18 bind?
A: Result: binds

Q: Does B19 bind?
A: Result: binds

Q: Does B20 bind?
A: Result: binds

Q: Does B21 bind?
A: Result: binds

Target: T2, HLA-A*11:01
Assay: as above

Q: Does B13 bind?
A: Result: binds

Q: Does B22 bind?
A: Result: binds

Q: Does B14 bind?
A: Result: binds

Q: Does B15 bind?
A: Result: binds

Q: Does B23 bind?
A: Result: binds

Q: Does B24 bind?
A: Result: binds

Q: Does B25 bind?
A: Result: binds

Q: Does B16 bind?
A: Result: binds

Q: Does B17 bind?
A: Result: binds

Q: Does B26 bind?
A: Result: binds

Q: Does B27 bind?
A: Result: binds

Q: Does B19 bind?
A: Result: binds

Q: Does B20 bind?
A: Result: binds

Q: Does B21 bind?
A: Result: binds

Q: Does B28 bind?
A: Result: binds

Q: Does B29 bind?
A: Result: binds

Q: Does B30 bind?
A: Result: binds

Target: T8, HLA-B*07:02 (human)
T8 construct: whole, on cells; MHC class I on a monoallelic cell line
Assay: as above

Q: Does B31 bind?
A: Result: binds

Q: Does B32 bind?
A: Result: binds

Q: Does B33 bind?
A: Result: binds

Q: Does B34 bind?
A: Result: binds

Q: Does B35 bind?
A: Result: binds

Q: Does B36 bind?
A: Result: binds

Q: Does B37 bind?
A: Result: binds

Q: Does B38 bind?
A: Result: binds

Target: T9, HLA-B*08:01 (human)
T9 construct: whole, on cells; MHC class I on a monoallelic cell line
Assay: as above

Q: Does B39 bind?
A: Result: binds

Q: Does B40 bind?
A: Result: binds

Q: Does B41 bind?
A: Result: binds

Q: Does B42 bind?
A: Result: binds

Q: Does B43 bind?
A: Result: binds

Q: Does B44 bind?
A: Result: binds

Q: Does B45 bind?
A: Result: binds

Q: Does B46 bind?
A: Result: binds

Q: Does B47 bind?
A: Result: binds

Q: Does B48 bind?
A: Result: binds

Q: Does B49 bind?
A: Result: binds

Target: T10, HLA-B*35:01 (human)
T10 construct: whole, on cells; MHC class I on a monoallelic cell line
Assay: as above

Q: Does B31 bind?
A: Result: binds

Q: Does B50 bind?
A: Result: binds

Q: Does B51 bind?
A: Result: binds

Q: Does B52 bind?
A: Result: binds

Q: Does B53 bind?
A: Result: binds

Target: T11, HLA-C*05:01 (human)
T11 construct: whole, on cells; MHC class I on a monoallelic cell line
Assay: as above

Q: Does B54 bind?
A: Result: binds

Q: Does B55 bind?
A: Result: binds

Q: Does B56 bind?
A: Result: binds

Q: Does B57 bind?
A: Result: binds

Q: Does B58 bind?
A: Result: binds

Source: patent US20240277770A1 (Genentech, published 2024)
